Measured values from patent US20150266974A1 (RINAT NEUROSCIENCE, published 2015).
Numbering of substitutions follows the chain as printed.

B1: 6L21H2335 (antibody, V domains shown)
VH: QVQLVQSGAEVKKPGASVKVSCKASGYTFTSYYMHWVRQAPGQGLEWMGEIHPFGGRTNYNEKFKSRVTMTRDTSTSTVYMELSSLRSEDTAVYYCARERPLHASDLWGQGTTVTVSS
VL: DIQMTQSPSSLSASVGDRVTITCRASQGISSALAWYQQKPGKAPKLLIYHASYRYTGVPSRFSGSGSGTDFTFTISSLQPEDIATYYCQQRYSLWRTFGQGTKLEIK
B2: 6L1721H23 (antibody, V domains shown)
VH: B1 VH with H103Y
VL: B1 VL with S30H
notes: L1L3-based mutant; Full-length IgG
B3: 5L1721H23 (antibody, V domains shown)
VH: B1 VH with F54S, H103Y, S105M, L107Y
VL: B1 VL with R24K, G28D, I29V, S30H, S31T, L33V, L94T, W95P
notes: Triple histidine mutant of h5A10; Only CDRs printed; Full-length IgG
B4: 5L1724H23_6L3 (antibody, V domains shown)
VH: B1 VH with F54S, H103Y, S105M, L107Y
VL: B1 VL with R24K, G28D, I29V, S30H, S31T, L33V, H50S, Y53H
notes: Only CDRs printed; Full-length IgG
B5: 5L1721H23_6H3 (antibody, V domains shown)
VH: B1 VH with F54S, H103Y
VL: B1 VL with R24K, G28D, I29V, S30H, S31T, L33V, L94T, W95P
notes: as for B4
B6: 5L1724H23_6L3H3 (antibody, V domains shown)
VH: B1 VH with F54S, H103Y
VL: B1 VL with R24K, G28D, I29V, S30H, S31T, L33V, H50S, Y53H
notes: as for B4
B7: 5L1721H23_6L3 (antibody, V domains shown)
VH: B1 VH with F54S, H103Y, S105M, L107Y
VL: B1 VL with R24K, G28D, I29V, S30H, S31T, L33V
notes: Tested as full-length IgG; also called heavy UC-H5H23, light UC-H5L1721-6L3
B8: 6L1721 (antibody, V domains shown)
VH: B1 VH with H52S, H103Y
VL: B1 VL with S30H
notes: L1L3-based mutant; Tested as full-length IgG
B9: 5L1724H23 (antibody, V domains shown)
VH: B1 VH with F54S, H103Y, S105M, L107Y
VL: B1 VL with R24K, G28D, I29V, S30H, S31T, L33V, H50S, Y53H, L94T, W95P
notes: as for B3
B10: 5L1721H23_6L3H3 (antibody, V domains shown)
VH: B1 VH with F54S, H103Y
VL: B1 VL with R24K, G28D, I29V, S30H, S31T, L33V
notes: Tested as full-length IgG; also called heavy UC-H5H23-6H3, light UC-H5L1721-6L3
B11: 5L1724H35 (antibody, V domains shown)
VH: B1 VH with H52N, F54S, S105M, L107Y
VL: B1 VL with R24K, G28D, I29V, S30H, S31T, L33V, H50S, Y53H, L94T, W95P
notes: as for B3
B12: h5A10 (antibody, V domains shown)
VH: B1 VH with H52N, F54S, H103Y, S105M, L107Y
VL: B1 VL with R24K, G28D, I29V, S31T, L33V, H50S, L94T, W95P
notes: In the histidine scan it was used as a Fab with a histidine tag at the C-terminus of CH1; also called 5A10 hu frame

Target: T1, human PCSK9 (human, UniProt Q8NBP7 31-692, limits assumed)
T1 construct: also called hPCSK9; huPCSK9
T1 sequence (Q8NBP7 31-692 limits assumed): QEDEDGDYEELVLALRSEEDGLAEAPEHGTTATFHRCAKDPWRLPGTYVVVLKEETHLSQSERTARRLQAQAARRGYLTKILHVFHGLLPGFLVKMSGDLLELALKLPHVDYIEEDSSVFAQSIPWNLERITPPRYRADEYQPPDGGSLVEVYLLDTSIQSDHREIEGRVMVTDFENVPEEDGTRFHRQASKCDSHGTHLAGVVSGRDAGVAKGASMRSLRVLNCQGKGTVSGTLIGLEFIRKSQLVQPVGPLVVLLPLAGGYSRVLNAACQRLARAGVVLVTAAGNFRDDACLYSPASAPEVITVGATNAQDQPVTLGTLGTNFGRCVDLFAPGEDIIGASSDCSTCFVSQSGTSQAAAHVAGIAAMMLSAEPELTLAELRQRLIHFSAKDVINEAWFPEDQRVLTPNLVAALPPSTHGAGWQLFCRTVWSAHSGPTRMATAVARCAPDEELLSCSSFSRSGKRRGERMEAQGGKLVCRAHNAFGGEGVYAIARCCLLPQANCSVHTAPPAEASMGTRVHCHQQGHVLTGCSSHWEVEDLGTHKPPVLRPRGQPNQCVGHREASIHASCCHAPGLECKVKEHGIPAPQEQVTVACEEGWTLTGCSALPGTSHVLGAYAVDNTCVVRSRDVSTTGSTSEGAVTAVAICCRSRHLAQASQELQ
Assay: SPR Biacore 3000, KD at pH 5.5 over KD at pH 7.4
From the text: (§1) These antibodies were expressed and purified for determination of their KD at 7.4 and their KD ratio of pH5.5/pH 7.4, as measured on a surface plasmon resonance Biacore 3000 biosensor equipped with a research-grade sensor chip using HBS-EP running buffer (Biacore AB, Uppsala, Sweden—now GE Healthcare). Rabbit polyclonal anti-Ms IgGs were amine-coupled at saturating levels onto the chip using a standard N-hydroxysuccinimide/ethyldimethylaminopropyl carbodiimide (NHS/EDC) chemistry. The buffer was switched to HBS-EP+1 mg/mL BSA+1 mg/mL CM-dextran. Full-length PCSK9 IgGs were diluted to about 15 μg/mL and captured for 1 min at 5 μL/min to give levels of about 500 RU per flow cell, leaving one blank to serve as a reference channel. […] Dissociation was monitored for 5 min. The chip was regenerated after the last injection of each titration with two 30 sec pulses of 100 mM phosphoric acid. Buffer cycles provided blanks for double-referencing the data, which were then fit globally to a simple binding model using Biaevaluation software v.4.1. Affinities were deduced from the quotient of the kinetic rate constants (KD=koff/kₒₙ).

Binder | KD ratio pH 5.5/7.4
B1 | 2.9
B2 | 6
B3 | 11.1
B4 | 24.5
B5 | 7.5
B6 | 5.5
B7 | 37.2
B8 | 2.3

Target: T2, mouse PCSK9 (mouse, UniProt Q80W65 35-694, limits assumed)
T2 construct: also called mPCSK9; msPCK9
T2 sequence (Q80W65 35-694 limits assumed): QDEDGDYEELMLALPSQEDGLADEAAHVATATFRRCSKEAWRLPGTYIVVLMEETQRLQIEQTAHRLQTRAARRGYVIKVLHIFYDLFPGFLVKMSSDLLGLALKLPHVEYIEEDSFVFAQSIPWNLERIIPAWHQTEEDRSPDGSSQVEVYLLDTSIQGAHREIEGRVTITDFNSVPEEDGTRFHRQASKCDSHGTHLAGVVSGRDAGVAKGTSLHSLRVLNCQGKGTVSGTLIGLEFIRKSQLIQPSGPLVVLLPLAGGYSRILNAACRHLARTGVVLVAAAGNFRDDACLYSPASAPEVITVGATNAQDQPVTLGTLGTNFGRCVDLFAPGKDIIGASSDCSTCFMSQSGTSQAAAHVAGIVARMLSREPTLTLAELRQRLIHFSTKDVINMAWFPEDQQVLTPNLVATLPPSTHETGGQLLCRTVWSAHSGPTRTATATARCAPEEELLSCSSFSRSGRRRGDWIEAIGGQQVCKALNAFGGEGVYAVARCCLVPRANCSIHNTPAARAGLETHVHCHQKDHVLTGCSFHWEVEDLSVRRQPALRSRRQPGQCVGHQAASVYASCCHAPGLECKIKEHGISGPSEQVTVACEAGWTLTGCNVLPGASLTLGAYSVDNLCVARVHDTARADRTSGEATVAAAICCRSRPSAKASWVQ
Assay: SPR Biacore 3000, KD at pH 5.5 over KD at pH 7.4
From the text: as §1

Binder | KD ratio pH 5.5/7.4
B1 | 2.4
B2 | 5
B3 | 25
B4 | 18.4
B5 | 13.9
B6 | 9.6
B7 | 29.1
B8 | 2

Target: T1, human PCSK9
Assay: SPR Biacore 3000, captured IgG, hPCSK9 injected, pH 5.5
From the text: as §1

Binder | Kd [nM] | koff [s⁻¹] | kon [M⁻¹ s⁻¹]
B1 | 363 | 0.238 | 655000
B9 | 39 | 0.00793 | 203000
B2 | 24 | 0.00261 | 110000
B3 | 144 | 0.0179 | 124000
B4 | 540 | 0.0407 | 75400
B5 | 55 | 0.00772 | 141000
B6 | 83 | 0.00789 | 95500
B7 | 257 | 0.0166 | 64500
B8 | 5.1 | 0.00084 | 166000

Target: T1, human PCSK9
Assay: SPR Biacore 3000, captured IgG, hPCSK9 injected, pH 7.4
From the text: as §1

Binder | Kd [nM] | koff [s⁻¹] | kon [M⁻¹ s⁻¹]
B1 | 126 | 0.00733 | 58100
B2 | 4 | 0.000201 | 50200
B3 | 13 | 0.000399 | 31700
B4 | 22 | 0.00079 | 35900
B5 | 7.3 | 0.000273 | 37400
B6 | 15 | 0.000342 | 22300
B7 | 6.9 | 0.000214 | 30900
B8 | 2.2 | 7.08e-05 | 32900

Target: T2, mouse PCSK9
Assay: SPR Biacore 3000, captured IgG, mPCSK9 injected, pH 5.5
From the text: as §1

Binder | Kd [nM] | koff [s⁻¹] | kon [M⁻¹ s⁻¹]
B10 | 117 | 0.0187 | 160000
B1 | 451 | 0.237 | 526000
B9 | 74 | 0.0202 | 273000
B2 | 36 | 0.00729 | 204000
B3 | 576 | 0.0588 | 102000
B4 | 756 | 0.121 | 160000
B5 | 111 | 0.0341 | 307000
B6 | 125 | 0.0263 | 211000
B7 | 408 | 0.0428 | 105000
B8 | 5.2 | 0.00177 | 338000

Target: T2, mouse PCSK9
Assay: SPR Biacore 3000, captured IgG, mPCSK9 injected, pH 7.4
From the text: as §1

Binder | Kd [nM] | koff [s⁻¹] | kon [M⁻¹ s⁻¹]
B10 | 8.1 | 0.000516 | 63700
B1 | 191 | 0.0172 | 89900
B2 | 7.2 | 0.000469 | 64800
B3 | 23 | 0.00141 | 61200
B4 | 41 | 0.00218 | 53100
B5 | 8 | 0.000899 | 113000
B6 | 13 | 0.000827 | 63100
B7 | 14 | 0.000676 | 47500
B11 | 35 | 0.00153 | 44300
B8 | 2.6 | 0.000228 | 88000

Target: T3, PCSK9 (species not stated, Table 7 assay) (Pan troglodytes (Chimpanzee); Homo …, UniProt A8T644 31-152; Q8NBP7 153-692)
T3 construct: kept apart from m1 and m2
T3 sequence (A8T644 31-152 limits assumed, chain 1 of 2): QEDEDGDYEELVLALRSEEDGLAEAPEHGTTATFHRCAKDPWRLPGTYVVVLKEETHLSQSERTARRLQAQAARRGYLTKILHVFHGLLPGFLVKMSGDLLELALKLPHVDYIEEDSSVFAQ
T3 sequence (A8T644 other isoform, or with tags, fused parts or gaps limits assumed, chain 2 of 2): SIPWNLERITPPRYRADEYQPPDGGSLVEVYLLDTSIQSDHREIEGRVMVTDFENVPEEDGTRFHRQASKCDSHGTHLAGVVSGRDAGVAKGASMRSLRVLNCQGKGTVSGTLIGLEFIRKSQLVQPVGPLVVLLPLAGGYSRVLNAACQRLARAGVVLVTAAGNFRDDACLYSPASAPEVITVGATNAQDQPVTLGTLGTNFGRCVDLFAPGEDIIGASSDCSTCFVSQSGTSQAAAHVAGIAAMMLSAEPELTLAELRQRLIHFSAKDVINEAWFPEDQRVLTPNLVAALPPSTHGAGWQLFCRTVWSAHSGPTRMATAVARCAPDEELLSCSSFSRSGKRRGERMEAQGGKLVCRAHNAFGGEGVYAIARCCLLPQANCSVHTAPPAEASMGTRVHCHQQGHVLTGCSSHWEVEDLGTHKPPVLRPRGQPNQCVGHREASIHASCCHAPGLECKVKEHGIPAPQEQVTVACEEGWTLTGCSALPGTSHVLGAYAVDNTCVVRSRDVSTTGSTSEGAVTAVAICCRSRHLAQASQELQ
Assay: SPR Biacore 2000, IgG on anti-human Fc, PCSK9 injected, pH 6.0
Procedure: (§2) Affinity and kinetic parameters for PCSK9 antibodies h5A10 and 5L1721H23_{—}6L3H3 as well as PCSK9 antibody H1M300N (see US2010/0166768, e.g., at Table 7). All experiments were performed on a Biacore 2000 biosensor.
(§3) An anti-human Fc sensor chip was prepared by activating all flow cells of a Biacore CM4 sensor chip with a 1:1 (v/v) mixture of 400 mM EDC and 100 mM NHS for 7 minutes, at a flow rate of 10 μL/min. An anti-human Fc reagent (Goat F(AB′)2 Fragment to Human IgG Fc, Cappel Catalog #: 55053) was diluted to 60 μg/mL in 10 mM Sodium Acetate pH 5.0 and injected on all flow cells for 7 minutes at 20 μL/min. All flow cells were blocked with 100 mM ethylenediamine in 150 mM Borate buffer pH 8.5 for 7 minutes at 10 μL/min.
(§4) The experiments were performed at pH 6.0 and 7.4 using sample and running buffers of 10 mM Sodium Phosphate, 150 mM Sodium Chloride, 0.05% Tween-20, pH 6 and 10 mM Sodium Phosphate, 150 mM Sodium Chloride, 0.05% Tween-20, pH 7.4, respectively.

Binder | Kd [nM] | koff [s⁻¹] | kon [M⁻¹ s⁻¹] | t1/2 [h]
B12 | < 0.181 | < 6e-05 | 331000 | < 3.22

Target: T3, PCSK9 (species not stated, Table 7 …)
Assay: SPR Biacore 2000, IgG on anti-human Fc, PCSK9 injected, pH 7.4
Procedure: as §2, §3, §4

Binder | Kd [nM] | koff [s⁻¹] | kon [M⁻¹ s⁻¹] | t1/2 [h]
B12 | < 0.249 | < 6e-05 | 241000 | < 3.22
